Consider 1 molecule from paper doi:10.1101/410217 (bioRxiv, 2018).

One may read the stoichiometry N as the number of molecules, sites or subunits per partner or assembly.

For this assay, the target named is T1, human parechovirus 3 (HPeV3) isolate A308/99 virion (Human parechovirus 3, isolate A308/99, strain).
T1 chain 1: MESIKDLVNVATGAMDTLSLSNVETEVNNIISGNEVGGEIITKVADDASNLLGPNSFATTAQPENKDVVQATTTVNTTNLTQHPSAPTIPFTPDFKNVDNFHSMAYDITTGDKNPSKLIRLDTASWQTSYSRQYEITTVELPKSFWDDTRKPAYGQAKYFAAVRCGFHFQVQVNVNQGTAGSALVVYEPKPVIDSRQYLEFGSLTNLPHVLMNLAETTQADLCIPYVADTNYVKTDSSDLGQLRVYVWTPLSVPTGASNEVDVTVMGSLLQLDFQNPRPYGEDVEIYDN
T1 chain 2: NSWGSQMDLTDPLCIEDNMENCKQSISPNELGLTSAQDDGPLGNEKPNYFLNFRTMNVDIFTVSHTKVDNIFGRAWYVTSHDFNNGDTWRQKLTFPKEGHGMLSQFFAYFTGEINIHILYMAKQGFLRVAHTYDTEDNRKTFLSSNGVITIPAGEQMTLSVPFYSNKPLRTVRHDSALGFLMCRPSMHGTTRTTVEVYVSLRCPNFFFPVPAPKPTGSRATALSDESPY
T1 chain 3: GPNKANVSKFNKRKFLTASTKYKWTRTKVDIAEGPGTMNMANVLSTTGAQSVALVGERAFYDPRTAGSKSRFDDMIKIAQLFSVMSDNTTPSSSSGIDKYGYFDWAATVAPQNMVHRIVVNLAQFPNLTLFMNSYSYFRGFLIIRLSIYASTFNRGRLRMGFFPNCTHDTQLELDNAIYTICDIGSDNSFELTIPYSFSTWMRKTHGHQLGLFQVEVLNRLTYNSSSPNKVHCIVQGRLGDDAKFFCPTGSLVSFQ
Description: cryo-EM structure.

B1: Fab fragment of human monoclonal antibody AT12-015 (Fab, V domains shown)
VH: EVQLLESGGGLVQPGGSLRLSCAASGFTFSSYAMSWVRQAPGKGLEWVSAISGGGDSRYYADSVKGRFTISRDNSKNTLYLQMNSLGAEDTALYYCAKRLGRVAEYYFDYWGQGTLVTVSP
VL: DIQMTQSPSTLSASVGDRVTITCRTSQSISNWLAWYQQKPGKAPKLLIYQASTLENGVPSRFTGSGSGTEFSLTISSLQPDDFATYYCQQYNNYMALTFGGGTKVEIK
With B1, the “stoichiometry N” value was 60 Fab per virion.
